This experiment deals with Fused MjGMPS (MjATPPase subunit fused to the C-terminus of MjGATase, no intervening linker) (Methanocaldococcus jannaschii). Nature of the experiment: SEC.

A word on the stoichiometry N: it is the number of molecules, sites or subunits per partner or assembly. The substance “Fused MjGMPS (MjATPPase subunit fused to the C-terminus of MjGATase, no intervening linker) (enzyme)” registered a stoichiometry N of 2.

Values taken from article doi:10.1101/2022.02.27.481963.
